Test results: paper PMC6374102 (Science Advances, 2019)

How the values were obtained:
[1] = In vitro release of LENK from NPs / bioconjugate stability in serum; format: in vitro ADME; settings: diluted male SWISS mouse serum (30% in 5% dextrose), 37°C; RP-HPLC, UV 257 nm
[2] = system: λ-carrageenan–induced inflammatory pain injected rats; test: Hargreaves thermal nociception test in λ-carrageenan-induced paw edema model; format: in vivo; settings: LENK-SQ NPs 20 mg/kg i.v.; morphine 1 mg/kg; rat

CC(C)=CCC/C(C)=C/CC/C(C)=C/CC/C=C(\C)CC/C=C(\C)CCC(=O)OCOC(=O)C(CC(C)C)NC(=O)C(Cc1ccccc1)NC(=O)CNC(=O)CNC(=O)C(N)Cc1ccc(O)cc1 (centres unmarked) [LENK-SQ-Diox, Leu-enkephalin-squalene with dioxycarbonyl linker]
Time that the released LENK peptide still lasted in serum [1]: over 10 hours | AUC of PWL time course, comparison between treatments [2]: significantly higher AUC than morphine and LENK-SQ-Am NPs
